One molecule from US20170281764A1 (JN BIOSCIENCES, published 2017) can be followed below.

Numbering of substitutions follows the chain as printed. Numbers in names are those of the source.

In test [1] the target is T1, HA-tagged human TIGIT with mutation N49A, on CHO-K1 cells (human, UniProt Q495A1 22-244).
T1 sequence: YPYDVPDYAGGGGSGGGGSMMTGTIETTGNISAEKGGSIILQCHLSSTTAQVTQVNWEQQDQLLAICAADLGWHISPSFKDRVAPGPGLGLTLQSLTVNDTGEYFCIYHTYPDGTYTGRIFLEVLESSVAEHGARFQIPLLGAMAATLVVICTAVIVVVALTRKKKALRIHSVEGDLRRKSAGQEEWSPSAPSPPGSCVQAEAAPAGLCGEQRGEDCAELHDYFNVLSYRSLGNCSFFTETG
Kind of test: flow cytometry on CHO-K1 cells transiently expressing HA-tagged TIGIT mutant. The procedure: (§1) For flow cytometry analysis of the anti-hTIGIT antibody binding epitope, HA-tagged human TIGIT proteins with or without single amino acid mutation were transiently transfected into CHO-K1 cells. After 24 hr, transfected cells were suspended in HBSS buffer (Thermo Fisher Scientific, Cat#14175095), and incubated with HuTIG1-IgG1.AA antibody at varying concentrations in 50 μL volume. After 1 hr incubation at 4° C., cells were washed and a second incubation with 50 μL Alexa488 conjugated anti-human IgG(H+L) secondary antibody (Thermo Fisher Scientific, Cat#A-11013) was performed to detect cells bound by antibody. Cells were incubated with an anti-HA antibody (Sigma, Cat# H7411) as a positive control, and non-transfected CHO-K1 cells were used as a negative control. The cells were analyzed on an Attune NxT Cytometer (Thermo Fisher Scientific) and the data were processed using FlowJo software. For each mutant, the saturating antibody binding MFI (mean fluorescence intensity) were normalized to 100% POC (percent of control), and no primary antibody binding control MFI were normalized to 0% POC. Data were then fit to a four parameter non-linear sigmoidal curve using GraphPad Prism 7 curve fitting using following formula: Y=Bottom+(Top−Bottom)/(1+10^{((Log EC}^₅₀^{-X)*HillSlope)}).
(§2) All of these residues co-locate to one discrete region on the front ([…] structure of the TIGIT IgV extracellular domain (FIG. 28).

Test [2] addresses T2, HA-tagged human TIGIT with mutation N37A, on CHO-K1 cells (human, UniProt Q495A1 22-244).
T2 construct: Built as for m17
T2 sequence: T1 sequence with N56A, A68N
The description is as above. Here is the method: as §1, §2

Test [3] deals with T3, HA-tagged human TIGIT with mutation Q35A, on CHO-K1 cells (human, UniProt Q495A1 22-244).
T3 construct: Built as for m17
T3 sequence: T1 sequence with Q54A, A68N
Described as above. Here is the method: as §1, §2

Test [4] deals with T4, F86A.
T4 construct: also called HA-tagged human TIGIT with mutation F86A, on CHO-K1 cells
T4 single chain: T1 sequence with A68N, F105A
Description: flow cytometry titration on CHO-K1 cells transiently expressing the HA-tagged TIGIT mutant, Alexa488 anti-human IgG detection, four-parameter fit of percent of control, nM is from the concentration axis and paragraph 252. The procedure:
as §1, §2
A general note: A flow cytometer gives signals particle by particle.

Test [5] concerns the target T5, I88A.
T5 construct: also called HA-tagged human TIGIT with mutation I88A, on CHO-K1 cells
T5 single chain: T1 sequence with A68N, I107A
Described as above. Here is the method:
as §1, §2

For test [6], the target named is T6, Y92A.
T6 construct: also called HA-tagged human TIGIT with mutation Y92A, on CHO-K1 cells
T6 single chain: T1 sequence with A68N, Y111A
Described as above. The procedure:
as §1, §2

B1: HuTIG1-IgG1.AA (humanized IgG1/kappa form of TIG1, L234A/L235A) (antibody)
heavy: not shown
light: DIQMTQSPSSLSASVGDRVTITCRASKSISKYLAWYQQKPGKAPKLLIYSGSTLQSGVPSRFSGSGSGTDFTLTISSLQPEDFATYYCQQHNEYPWTFGGGTKVEIKRTVAAPSVFIFPPSDEQLKSGTASVVCLLNNFYPREAKVQWKVDNALQSGNSQESVTEQDSKDSTYSLSSTLTLSKADYEKHKVYACEVTHQGLSSPVTKSFNRGEC
notes: Mature full chains; also called humanized TIG1
For orientation: EC50 means the concentration that produces a half-maximal response. Higher therefore signals lower potency in that assay. For the molecule B1, the “fold decrease in binding affinity against wild type human TIGIT” value in test [1], in test [2] and in test [3] was above 10 fold throughout. The concentration for a half-maximal effect (EC50) amounted to 0.844 nM in test [4], 0.591 nM in test [5] and 2.12 nM in test [6].
